The text below walks through data of patent publication US20230279085A1 (ABL BIO, published 2023).

Substitutions are numbered along the chain they refer to.

The target in one test is alpha-synuclein monomer (Homo sapiens, UniProt P37840 1-140). Nature of the test: SPR (BIAcore), antibody captured on Protein A, sample alpha-Syn monomer, 1:1 binding fit printed under a sensorgram that shows no binding (see non_binding). The protocol:
The quantitative analysis of the binding of alpha-synuclein antibody prepared in Example 1 to monomer and aggregate antigens was performed using BIAcore analysis.
(§1) The used instrument was T200 (GE Healthcare, S/N: 1565888). Protein A is used as a chip (GE Healthcare, Cat. 29-1275-56). 10 mM Glycine-HCl pH 1.5 (GE Healthcare, Cat. BR-1003-54) was regeneration buffer. The running buffer, analyte dilution, and the sample dilution buffer were HBS-EP. The α-syn antibodies (3A9, 9B11 and 11F11) prepared in Example 1 were diluted with 1×HBS-EP (GE Healthcare, Cat. BR-1006-69), and alpha-synuclein monomer (1 mg/ml) and fibril protein (3 mg/ml) were serially diluted in duplicate and analyzed at 6 concentrations (0, 0.39, 1.56, 6.25, 25, 100 nM) including 0 nM in total. For the capture, the monomer was for RU of 800 (theoretical), and a fibril was for RU of 100 (theoretical). The capture phase was performed at contact time of 60 seconds, a flow rate of 30 μl/min, and a stabilization period of 180 seconds. The association phase was performed at the association time of 120 seconds and the flow rate was 30 μl/min. The dissociation phase was performed at the dissociation time of 360 seconds and the flow rate of 30 μl/min. The regeneration phase was performed twice time at the regeneration time of 240 seconds (primary) and 60 seconds (secondary) and a flow rate of 30 μl/min. […]

Test [1] concerns the target alpha-synuclein aggregate (fibril) (Homo sapiens, UniProt P37840 1-140). Nature of the test: SPR (BIAcore), Protein A capture, file ProteinA-Fibril-main-5th, sample aSyn180330, 1:1 binding fit, 25 °C. The procedure:
as §1, with “μl/min.” for “μl/min. The regeneration phase was performed twice time at the regeneration time of 240 seconds (primary) and 60 seconds (secondary) and a flow rate of 30 μl/min.”
The BIAcore analysis was performed to quantitatively analyze the binding affinity of the chimeric antibodies (Ch11F11) obtained in Example 8, and the humanized antibodies (Hu11F11) obtained in Example 9, according to the substantially same method of Example 2-3. […]
For orientation: Surface plasmon resonance follows binding to a sensor surface in real time, without labels.

B1: Ch11F11 chimeric antibody (antibody, human IgG1, V domains shown)
VH: EVQLQESGGGLVQPGGSLRLSCATSGFTFSDFYMEWVRQPPGKRLEWIAASRNKANDYTTEYSASVKGRFIVSRDTSQSILYLQMNALRAEDTAIYYCARDAHGKPFAYWGQGTLVTVSA
VL: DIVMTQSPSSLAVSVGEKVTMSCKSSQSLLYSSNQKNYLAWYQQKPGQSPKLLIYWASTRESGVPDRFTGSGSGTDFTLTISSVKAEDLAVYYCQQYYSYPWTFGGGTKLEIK
notes: Chimeric human IgG1; also called chimeric 11F11; Ch11F11(-RD)
By koff is commonly meant a measure of how fast the partners let go of each other. For orientation: kon means the second-order rate constant of association. A low value points to slower complex formation. As for B1, in the test with alpha-synuclein monomer, the koff amounted to 2.65e-06 s⁻¹ and the kon is 2.07e+06 M⁻¹ s⁻¹.

B2: hu11F11(ver.3) (antibody, IgG1, V domains shown)
VH: B1 VH with Q5V, I71T, V72I, Q78K, I80S, A87S, L115T, A120S
VL: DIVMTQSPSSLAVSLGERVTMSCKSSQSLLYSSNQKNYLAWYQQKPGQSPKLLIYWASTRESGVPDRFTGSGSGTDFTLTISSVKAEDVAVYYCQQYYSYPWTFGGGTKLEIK
notes: Humanized IgG1; also called Hu11F1_ver3; Hu11F11_v3
With B2, in test [1], the koff is 0.000266 s⁻¹.
